From patent US20160355591A1

Tests used:
[1] = molecular target: HLA-DR (L243 antigen) on canine lymphocytes and canine lymphoma cells (dog); assay: flow cytometry, canine lymphoma aspirate 150836; none 3.9; control antibody
[2] = molecular target: HLA-DR (human leukocyte antigen-DR) on human lymphoma and leukemia cells and human lymphocytes (human); assay: HC-1 (hairy cell leukemia) cells; no mAb 4.8; isotype control
[3] = molecular target: HLA-DR (human leukocyte antigen-DR) on human lymphoma and leukemia cells and human lymphocytes (human); assay: WAC (CLL) cells; no mAb 15.8; isotype control
[4] = molecular target: HLA-DR (human leukocyte antigen-DR) on human lymphoma and leukemia cells and human lymphocytes (human); assay: Kasumi-3 (AML) cells; no mAb 9.6; isotype control
[5] = molecular target: HLA-DR (human leukocyte antigen-DR) on human lymphoma and leukemia cells and human lymphocytes (human); assay: indirect flow cytometry, Namalwa cells, FITC-GAM 2nd Ab; none 2.91; control antibody
[6] = molecular target: HLA-DR (human leukocyte antigen-DR) on human lymphoma and leukemia cells and human lymphocytes (human); assay: MN60 (ALL) cells; no mAb 8.1; isotype control
[7] = molecular target: HLA-DR (L243 antigen) on canine lymphocytes and canine lymphoma cells (dog); assay: flow cytometry, canine lymphoma aspirate 150836; none 3.4; control antibody
[8] = molecular target: HLA-DR (human leukocyte antigen-DR) on human lymphoma and leukemia cells and human lymphocytes (human); assay: Kasumi-1 (AML) cells; no mAb 18.2; isotype control
[9] = molecular target: HLA-DR (human leukocyte antigen-DR) on human lymphoma and leukemia cells and human lymphocytes (human); assay: RS4;11 (ALL) cells; no mAb 6.4; isotype control
[10] = molecular target: HLA-DR (human leukocyte antigen-DR) on human lymphoma and leukemia cells and human lymphocytes (human); assay: GDM-1 (AML) cells; no mAb 16.8; isotype control
[11] = molecular target: HLA-DR (human leukocyte antigen-DR) on human lymphoma and leukemia cells and human lymphocytes (human); assay: Granta-519 (MCL) cells; no mAb 15.3; isotype control
[12] = molecular target: HLA-DR (human leukocyte antigen-DR) on human lymphoma and leukemia cells and human lymphocytes (human); assay: 697 (ALL) cells; no mAb 4.9; isotype control
[13] = molecular target: HLA-DR (L243 antigen) on canine lymphocytes and canine lymphoma cells (dog); assay: flow cytometry, dog lymphoma aspirate; none 3.85; control antibody
[14] = molecular target: HLA-DR (human leukocyte antigen-DR) on human lymphoma and leukemia cells and human lymphocytes (human); assay: MEC-1 (CLL) cells; no mAb 4.7; isotype control
[15] = molecular target: HLA-DR (human leukocyte antigen-DR) on human lymphoma and leukemia cells and human lymphocytes (human); assay: Jeko-1 (MCL) cells; no mAb 14.3; isotype control
[16] = molecular target: HLA-DR (L243 antigen) on canine lymphocytes and canine lymphoma cells (dog); assay: flow cytometry, dog lymphoma aspirate; none 3.37; control antibody
[17] = molecular target: HLA-DR (human leukocyte antigen-DR) on human lymphoma and leukemia cells and human lymphocytes (human); assay: REH (ALL) cells; no mAb 3.9; isotype control
[18] = molecular target: HLA-DR (human leukocyte antigen-DR) on human lymphoma and leukemia cells and human lymphocytes (human); assay: K562 (CML) cells; no mAb 3.2; isotype control
[19] = molecular target: HLA-DR (human leukocyte antigen-DR) on human lymphoma and leukemia cells and human lymphocytes (human); assay: indirect flow cytometry, Namalwa cells, FITC-GAM 2nd Ab; none 2.91; antibody of irrelevant specificity
[20] = molecular target: T1, CD20 on human cells (human) (UniProt P11836); assay: WAC (CLL) cells; no mAb 15.8
T1 sequence (looked up): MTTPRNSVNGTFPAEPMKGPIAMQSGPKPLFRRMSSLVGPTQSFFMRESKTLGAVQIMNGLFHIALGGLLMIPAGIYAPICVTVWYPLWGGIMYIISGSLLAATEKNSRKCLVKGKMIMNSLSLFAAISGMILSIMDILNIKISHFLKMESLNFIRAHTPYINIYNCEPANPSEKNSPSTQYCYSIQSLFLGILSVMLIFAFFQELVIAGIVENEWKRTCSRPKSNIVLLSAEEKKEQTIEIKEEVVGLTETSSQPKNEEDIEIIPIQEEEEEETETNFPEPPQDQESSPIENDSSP

[21] = molecular target: T1, CD20 on human cells (human); assay: MN60 (ALL) cells; no mAb 8.1
[22] = molecular target: T1, CD20 on human cells (human); assay: indirect flow cytometry, Namalwa cells, FITC-GAM 2nd Ab; none 2.91
[23] = molecular target: T1, CD20 on human cells (human); assay: Kasumi-3 (AML) cells; no mAb 9.6
[24] = molecular target: T1, CD20 on human cells (human); assay: Kasumi-1 (AML) cells; no mAb 18.2
[25] = molecular target: T2, CD20 on dog lymphocytes and dog lymphoma cells (dog) (UniProt Q3C2E2); assay: flow cytometry, canine lymphoma aspirate 150836; none 3.4
T2 sequence (looked up): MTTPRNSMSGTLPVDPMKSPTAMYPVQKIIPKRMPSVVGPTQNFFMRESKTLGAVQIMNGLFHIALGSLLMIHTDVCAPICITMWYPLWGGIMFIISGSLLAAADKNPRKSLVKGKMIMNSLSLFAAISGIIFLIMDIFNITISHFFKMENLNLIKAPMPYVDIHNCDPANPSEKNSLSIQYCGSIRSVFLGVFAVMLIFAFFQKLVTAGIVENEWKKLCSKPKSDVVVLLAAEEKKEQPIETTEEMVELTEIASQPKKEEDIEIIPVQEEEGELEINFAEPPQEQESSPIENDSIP

[26] = molecular target: T1, CD20 on human cells (human); assay: MEC-1 (CLL) cells; no mAb 4.7
[27] = molecular target: T1, CD20 on human cells (human); assay: REH (ALL) cells; no mAb 3.9
[28] = molecular target: T1, CD20 on human cells (human); assay: 697 (ALL) cells; no mAb 4.9
[29] = molecular target: T1, CD20 on human cells (human); assay: K562 (CML) cells; no mAb 3.2
[30] = molecular target: T1, CD20 on human cells (human); assay: RS4;11 (ALL) cells; no mAb 6.4
[31] = molecular target: T1, CD20 on human cells (human); assay: GDM-1 (AML) cells; no mAb 16.8
[32] = molecular target: T1, CD20 on human cells (human); assay: Jeko-1 (MCL) cells; no mAb 14.3
[33] = molecular target: T2, CD20 on dog lymphocytes and dog lymphoma cells (dog); assay: flow cytometry on tumor aspirates from dogs with lymphoma
[34] = molecular target: T1, CD20 on human cells (human); assay: Granta-519 (MCL) cells; no mAb 15.3
[35] = molecular target: T2, CD20 on dog lymphocytes and dog lymphoma cells (dog); assay: flow cytometry, canine lymphoma aspirate 150836; none 3.9
[36] = molecular target: T1, CD20 on human cells (human); assay: HC-1 (hairy cell leukemia) cells; no mAb 4.8
[37] = molecular target: T2, CD20 on dog lymphocytes and dog lymphoma cells (dog); assay: flow cytometry, dog lymphoma aspirate; none 3.85
[38] = molecular target: T2, CD20 on dog lymphocytes and dog lymphoma cells (dog); assay: flow cytometry, dog lymphoma aspirate; none 3.37
[39] = molecular target: HLA-DR (human leukocyte antigen-DR) on human lymphoma and leukemia cells and human lymphocytes (human); assay: indirect flow cytometry, Namalwa cells, FITC-GAH 2nd Ab; none 2.52; antibody of irrelevant specificity (anti-EGP-1)
[40] = molecular target: Fcγ-receptor on effector cells; assay: cell-based or functional assay
[41] = molecular target: CD22 on human cells (human) (UniProt P20273); assay: WAC (CLL) cells; no mAb 15.8
[42] = molecular target: CD22 on human cells (human) (UniProt P20273); assay: MN60 (ALL) cells; no mAb 8.1
[43] = molecular target: CD22 on human cells (human) (UniProt P20273); assay: indirect flow cytometry, Namalwa cells, FITC-GAM 2nd Ab; none 2.91
[44] = molecular target: CD22 on human cells (human) (UniProt P20273); assay: Kasumi-3 (AML) cells; no mAb 9.6
[45] = molecular target: CD22 on human cells (human) (UniProt P20273); assay: Kasumi-1 (AML) cells; no mAb 18.2
[46] = molecular target: CD22 on dog lymphocytes and dog lymphoma cells (dog); assay: flow cytometry, canine lymphoma aspirate 150836; none 3.4
[47] = molecular target: CD22 on human cells (human) (UniProt P20273); assay: MEC-1 (CLL) cells; no mAb 4.7
[48] = molecular target: CD22 on human cells (human) (UniProt P20273); assay: REH (ALL) cells; no mAb 3.9
[49] = molecular target: CD22 on human cells (human) (UniProt P20273); assay: 697 (ALL) cells; no mAb 4.9
[50] = molecular target: CD22 on human cells (human) (UniProt P20273); assay: K562 (CML) cells; no mAb 3.2
[51] = molecular target: CD22 on human cells (human) (UniProt P20273); assay: RS4;11 (ALL) cells; no mAb 6.4
[52] = molecular target: CD22 on human cells (human) (UniProt P20273); assay: GDM-1 (AML) cells; no mAb 16.8
[53] = molecular target: CD22 on human cells (human) (UniProt P20273); assay: Jeko-1 (MCL) cells; no mAb 14.3
[54] = molecular target: CD22 on human cells (human) (UniProt P20273); assay: Granta-519 (MCL) cells; no mAb 15.3
[55] = molecular target: CD22 on dog lymphocytes and dog lymphoma cells (dog); assay: flow cytometry, canine lymphoma aspirate 150836; none 3.9
[56] = molecular target: CD22 on human cells (human) (UniProt P20273); assay: HC-1 (hairy cell leukemia) cells; no mAb 4.8
[57] = molecular target: CD22 on dog lymphocytes and dog lymphoma cells (dog); assay: flow cytometry, dog lymphoma aspirate; none 3.85
[58] = molecular target: CD22 on dog lymphocytes and dog lymphoma cells (dog); assay: flow cytometry, dog lymphoma aspirate; none 3.37
[59] = molecular target: CD22 on dog lymphocytes and dog lymphoma cells (dog); assay: flow cytometry, canine lymphoma aspirate 150836; none 3.2
[60] = molecular target: CD22 on dog lymphocytes and dog lymphoma cells (dog); assay: flow cytometry, dog lymphoma aspirate; none 4.48
[61] = molecular target: CD22 on dog lymphocytes and dog lymphoma cells (dog); assay: flow cytometry, dog lymphoma aspirate; none 3.24
[62] = molecular target: CD22 on dog lymphocytes and dog lymphoma cells (dog); assay: flow cytometry, canine lymphoma aspirate 150836; none 4.5

**Q.** Which results are given for “Ag8 (P3x63 Ag8, murine myeloma derived mAb, isotype control) (antibody)”?
**A.** % Positive [1]: 2.8%; mean FL [2]: 3.5; mean FL [3]: 14.4; mean FL [4]: 15.7; geometric mean fluorescence [5]: 3.64; mean FL [6]: 10.5; mean FL [7]: 3; mean FL [8]: 17; mean FL [9]: 8.6; mean FL [10]: 20.1; mean FL [11]: 16.9; mean FL [12]: 5.6; % Positive [13]: 2.81%; mean FL [14]: 6; mean FL [15]: 17.4; mean FL [16]: 3.04; mean FL [17]: 3.9; mean FL [18]: 4.1

**Q.** RS7 (murine mAb) (antibody) was tested. Which geometric mean fluorescence [19] did it give?
**A.** The geometric mean fluorescence was 3.39.

**Q.** Which results are given for “2B8 (murine anti-human CD20 mAb) (antibody)”?
**A.** mean FL [20]: 275; mean FL [21]: 162; geometric mean fluorescence [22]: 6.16; mean FL [23]: 11; mean FL [24]: 14.5; mean FL [25]: 3.1; mean FL [26]: 175; mean FL [27]: 23.5; mean FL [28]: 6.9; mean FL [29]: 4.3; mean FL [30]: 11.5; mean FL [31]: 15.6; mean FL [32]: 455; positive samples (of 21 samples) [33]: 5; strongly positive samples (of 21 samples) [33]: 3; mean FL [34]: 677; % Positive [35]: 2.6%; mean FL [36]: 42.2; % Positive [37]: 2.61%; mean FL [38]: 3.11

**Q.** Which geometric mean fluorescence [39] does the source give for hRS7 (humanized anti-EGP-1 antibody) here?
**A.** The geometric mean fluorescence was 2.47.

**Q.** How did the specific lysis of Daudi target cells (ADCC), corrected for the effect on effector cells [40] turn out when “hL243 (humanized L243 anti-HLA-DR antibody, IgG1/K isotype)” was run?
**A.** The specific lysis of Daudi target cells (ADCC), corrected for the effect on effector cells was 48%.

**Q.** With “LL2 (murine anti-human CD22 mAb) (antibody)” as the substance, how does the mean FL [41] read?
**A.** Its mean FL is 20.1.

**Q.** And the mean FL [42]?
**A.** The mean FL was 17.1.

**Q.** And the geometric mean fluorescence [43]?
**A.** Its geometric mean fluorescence is 10.5.

**Q.** What about the mean FL [44] of the same substance?
**A.** The mean FL was 13.9.

**Q.** What about the mean FL [45] of the same substance?
**A.** The mean FL was 20.9.

**Q.** And the mean FL [46]?
**A.** The mean FL was 3.7.

**Q.** And the mean FL [47]?
**A.** Its mean FL is 49.

**Q.** What about the mean FL [48] of the same substance?
**A.** The mean FL was 16.8.

**Q.** And the mean FL [49]?
**A.** Its mean FL is 15.9.

**Q.** And the mean FL [50]?
**A.** The mean FL was 4.3.

**Q.** What about the mean FL [51] of the same substance?
**A.** Its mean FL is 20.9.

**Q.** What about the mean FL [52] of the same substance?
**A.** The mean FL was 28.5.

**Q.** What about the mean FL [53] of the same substance?
**A.** Its mean FL is 25.

**Q.** And the mean FL [54]?
**A.** Its mean FL is 28.6.

**Q.** What about the % Positive [55] of the same substance?
**A.** Its % Positive is 5.1%.

**Q.** And the mean FL [56]?
**A.** Its mean FL is 17.8.

**Q.** And the % Positive [57]?
**A.** The % Positive was 5.05%.

**Q.** And the mean FL [58]?
**A.** The mean FL was 3.73.

**Q.** For “hLL2 (epratuzumab, humanized anti-CD22) (antibody)”, which mean FL [59] is on record?
**A.** The mean FL was 3.4.

**Q.** What about the % Positive [60] of the same substance?
**A.** Its % Positive is 4.85%.

**Q.** And the mean FL [61]?
**A.** Its mean FL is 3.37.

**Q.** What about the % Positive [62] of the same substance?
**A.** Its % Positive is 4.9%.

**Q.** How did the specific lysis of Daudi target cells (ADCC), corrected for the effect on effector cells [40] turn out when “hL243γ4P (IMMU-114; humanized L243, IgG4/K isotype with Ser241Pro hinge mutation) (antibody)” was run?
**A.** The specific lysis of Daudi target cells (ADCC), corrected for the effect on effector cells was 12%.
